# Experimental data published in article PMC5559510.
# How the values were obtained:
# [1] = target: TMR labeled SNAP-25a Δ9 (residues 1–197, S187C) (human) (UniProt P60880); assay: FRET or BRET; two-membrane system, 37°C; Munc18-1/full-length syntaxin-1 on t-liposomes, BDPY-full-length synaptobrevin-2 (S61C) on v-liposomes, TMR-SNAP-25a Δ9 (S187C), 0.5 μM Munc13-1 C1-C2B-MUN, with or without 0.5 μM Syt1 C2AB, 0.2 mM EDTA; two-phase exponential decay
# [2] = target: TMR-labeled SNAP-25a (S187C) (human) (UniProt P60880); assay: FRET or BRET; membrane-free, 37°C; 5 μM co-expressed Munc18-1/syntaxin-1 (1–261), 5 μM TMR-SNAP-25a (S187C), 1 μM BDPY-synaptobrevin-2 (29–93, S61C), 30 μM Munc13-1 MUN domain, with or without 2 μM Syt1 C2AB; fitted to a one-phase exponential decay
# [3] = target: TMR-labeled SNAP-25a (S187C) (human) (UniProt P60880); assay: FRET or BRET; one-membrane system, 37°C; Munc18-1/full-length syntaxin-1 on t-liposomes, TMR-SNAP-25a (S187C), BDPY-synaptobrevin-2 (29–93, S61C) in solution, 0.5 μM Munc13-1 C1-C2B-MUN, with or without 0.5 μM Syt1 C2AB, 0.2 mM EDTA; two-phase exponential decay
kfast of ternary SNARE complex formation (no Syt1) [1] [s⁻¹],kfast of ternary SNARE complex formation (with Syt1 C2AB) [1] [s⁻¹],τfast of ternary SNARE complex formation (no Syt1) [1] [s],τfast of ternary SNARE complex formation (with Syt1 C2AB) [1] [s],kfast of ternary SNARE complex formation (no Syt1) [2] [s⁻¹],kfast of ternary SNARE complex formation (with Syt1 C2AB) [2] [s⁻¹],τfast of ternary SNARE complex formation (no Syt1) [2] [s],τfast of ternary SNARE complex formation (with Syt1 C2AB) [2] [s],kfast of ternary SNARE complex formation (no Syt1) [3] [s⁻¹],kfast of ternary SNARE complex formation (with Syt1 C2AB) [3] [s⁻¹],τfast of ternary SNARE complex formation (no Syt1) [3] [s],τfast of ternary SNARE complex formation (with Syt1 C2AB) [3] [s],Substance
0.0123,0.0249,81.4,40.1,,,,,,,,,"BDPY-labeled full-length synaptobrevin-2 (residues 1–116, S61C), on v-liposomes (from UniProt P63045 1-116) (natural protein)"
,,,,0.0013,0.00354,770,282,0.00135,0.0152,740,65.8,"BDPY-labeled synaptobrevin-2 cytoplasmic domain (residues 29–93, S61C) (from UniProt P63045 29-93) (domain or fragment)"
